Assay results published in paper doi:10.1101/340133.

Assays:
[1] = biological target: dynamic microtubules polymerized from αβ-tubulin on GMPCPP seeds (porcine) (UniProt P02554); assay: TIRF microscopy of dynamic microtubules
[2] = biological target: dynamic microtubules polymerized from αβ-tubulin on GMPCPP seeds (porcine) (UniProt P02554); assay: single molecule TIRF microscopy of dynamic microtubules

Chain of UniProt P02554 (P02554 whole entry, looked up): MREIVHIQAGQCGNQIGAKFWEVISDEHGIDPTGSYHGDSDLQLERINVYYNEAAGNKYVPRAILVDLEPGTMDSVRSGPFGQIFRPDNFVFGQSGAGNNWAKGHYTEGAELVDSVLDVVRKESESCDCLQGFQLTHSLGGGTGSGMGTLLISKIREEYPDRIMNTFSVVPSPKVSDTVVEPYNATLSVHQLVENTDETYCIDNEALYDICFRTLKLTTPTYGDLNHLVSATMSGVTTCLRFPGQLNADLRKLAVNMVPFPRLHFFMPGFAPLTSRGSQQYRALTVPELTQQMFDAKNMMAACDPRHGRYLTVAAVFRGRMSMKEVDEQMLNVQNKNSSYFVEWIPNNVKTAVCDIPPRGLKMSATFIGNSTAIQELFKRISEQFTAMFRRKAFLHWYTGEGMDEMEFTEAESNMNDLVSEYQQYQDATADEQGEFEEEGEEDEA

Binder	residence ratio at MT plus-ends (average) [1] [%]	dwell time at MT plus-ends [2] [s]
wt-Alp14 (residues 1-690) with C-terminal mNeonGreen (domain or fragment) MSQDQEEDYSKLPLESRIVHKVWKVRLSAYEECSKSFSLSADGSDNCFELWNNQSELWKSVLTDSNVAAQEAGTAAFVAYCRFSDPSHLLKAREISVLSISEKCLTSPRAGTRENALEALMLLVEADSAAPVIESIIPSLSARSPKVIASNVAAIASLVEQFGAKVIPSKMIIPHISNLFGHADKNVRKEASRLTVNIYRWTGDPLKDLLFKDLRPVQTKELESLFAELPTEPPKQTRFLKSQQPTSEPNVETQVEEQPALENEESEPEPSDDQFDLVEEVDVLPNVDPNLETLMASSKWKDRKEALDKLLPVLSQPKIKDNDFFNLVAILTKSVSKDANIMVVINAAHCIQAMAKGLRSNFSKYASTSINALLERSKEKKANVIESLSSAMDAVLATSSLDDLAELIASFAGNKNPQIKSSCFSLFSRSFSNMTSLPSKFTVDTCAKACVPGVSDTFEPVRSAAAEALGVLMKLVGERAINQYLSPLDDIRKSKIRSFYETATVKAKAPTKKSKVKPSKQEESKVVVPSNAKAVKKSVVPSSPVVPSPRKATNKSLSMDVSKGNAFENGPLLPRPTTRPVSRGLSRGTSSSLQQKVKASTPLNSGALNETVQNLKNMELDDPAPQPAKHSRVDRYEHPKVLEDNDSTISSLESLKRENEELREQLKVEHEENISMQKQLSELKGELNTL	89.4	
C-terminally SNAPf-tagged wt-Alp14 (residues 1-690) (domain or fragment, SNAP-Surface Atto 488 covalently attached to the SNAPf tag (5-10 nM labeled diluted into 190-195 nM non-labeled)) MSQDQEEDYSKLPLESRIVHKVWKVRLSAYEECSKSFSLSADGSDNCFELWNNQSELWKSVLTDSNVAAQEAGTAAFVAYCRFSDPSHLLKAREISVLSISEKCLTSPRAGTRENALEALMLLVEADSAAPVIESIIPSLSARSPKVIASNVAAIASLVEQFGAKVIPSKMIIPHISNLFGHADKNVRKEASRLTVNIYRWTGDPLKDLLFKDLRPVQTKELESLFAELPTEPPKQTRFLKSQQPTSEPNVETQVEEQPALENEESEPEPSDDQFDLVEEVDVLPNVDPNLETLMASSKWKDRKEALDKLLPVLSQPKIKDNDFFNLVAILTKSVSKDANIMVVINAAHCIQAMAKGLRSNFSKYASTSINALLERSKEKKANVIESLSSAMDAVLATSSLDDLAELIASFAGNKNPQIKSSCFSLFSRSFSNMTSLPSKFTVDTCAKACVPGVSDTFEPVRSAAAEALGVLMKLVGERAINQYLSPLDDIRKSKIRSFYETATVKAKAPTKKSKVKPSKQEESKVVVPSNAKAVKKSVVPSSPVVPSPRKATNKSLSMDVSKGNAFENGPLLPRPTTRPVSRGLSRGTSSSLQQKVKASTPLNSGALNETVQNLKNMELDDPAPQPAKHSRVDRYEHPKVLEDNDSTISSLESLKRENEELREQLKVEHEENISMQKQLSELKGELNTL		129
SNAPf-tagged TOG1M Alp14 (residues 1-690) (domain or fragment, SNAP-Surface Atto 488 covalently attached to the SNAPf tag) MSQDQEEDYSKLPLESRIVHKVAKVRLSAYEECSKSFSLSADGSDNCFELWNNQSELWKSVLTDSNVAAQEAGTAAFVAYCRFSDPSHLLKAREISVLSISEKCLTSPAAGTRENALEALMLLVEADSAAPVIESIIPSLSARSPKVIASNVAAIASLVEQFGAKVIPSKMIIPHISNLFGHADKNVRKEASRLTVNIYAWTGDPLKDLLFKDLRPVQTKELESLFAELPTEPPKQTRFLKSQQPTSEPNVETQVEEQPALENEESEPEPSDDQFDLVEEVDVLPNVDPNLETLMASSKWKDRKEALDKLLPVLSQPKIKDNDFFNLVAILTKSVSKDANIMVVINAAHCIQAMAKGLRSNFSKYASTSINALLERSKEKKANVIESLSSAMDAVLATSSLDDLAELIASFAGNKNPQIKSSCFSLFSRSFSNMTSLPSKFTVDTCAKACVPGVSDTFEPVRSAAAEALGVLMKLVGERAINQYLSPLDDIRKSKIRSFYETATVKAKAPTKKSKVKPSKQEESKVVVPSNAKAVKKSVVPSSPVVPSPRKATNKSLSMDVSKGNAFENGPLLPRPTTRPVSRGLSRGTSSSLQQKVKASTPLNSGALNETVQNLKNMELDDPAPQPAKHSRVDRYEHPKVLEDNDSTISSLESLKRENEELREQLKVEHEENISMQKQLSELKGELNTL		57.4
TOG1 inactivated Alp14 (TOG1M), residues 1-690, with C-terminal mNeonGreen (domain or fragment) MSQDQEEDYSKLPLESRIVHKVAKVRLSAYEECSKSFSLSADGSDNCFELWNNQSELWKSVLTDSNVAAQEAGTAAFVAYCRFSDPSHLLKAREISVLSISEKCLTSPAAGTRENALEALMLLVEADSAAPVIESIIPSLSARSPKVIASNVAAIASLVEQFGAKVIPSKMIIPHISNLFGHADKNVRKEASRLTVNIYAWTGDPLKDLLFKDLRPVQTKELESLFAELPTEPPKQTRFLKSQQPTSEPNVETQVEEQPALENEESEPEPSDDQFDLVEEVDVLPNVDPNLETLMASSKWKDRKEALDKLLPVLSQPKIKDNDFFNLVAILTKSVSKDANIMVVINAAHCIQAMAKGLRSNFSKYASTSINALLERSKEKKANVIESLSSAMDAVLATSSLDDLAELIASFAGNKNPQIKSSCFSLFSRSFSNMTSLPSKFTVDTCAKACVPGVSDTFEPVRSAAAEALGVLMKLVGERAINQYLSPLDDIRKSKIRSFYETATVKAKAPTKKSKVKPSKQEESKVVVPSNAKAVKKSVVPSSPVVPSPRKATNKSLSMDVSKGNAFENGPLLPRPTTRPVSRGLSRGTSSSLQQKVKASTPLNSGALNETVQNLKNMELDDPAPQPAKHSRVDRYEHPKVLEDNDSTISSLESLKRENEELREQLKVEHEENISMQKQLSELKGELNTL	72.4	
